Target: T1, epidermal growth factor receptor (EGFR) on EGFR-expressing cell lines (HeLa, HT-29, MRC-5, A549) (UniProt P00533 25-1210)
T1 construct: whole, on cells; EGFR expression in the cell lines was verified by Western blot; HEK293T served as the EGFR-negative line; also called EGF receptor
Experiment: fluorescence microscopy of Alexa Fluor 488-labelled phage on HeLa cells

B1: M13KO7 helper phage (no display) (other)
chain: AETVESCLAKPHTENSFTNVWKDDKTLDRYANYEGCLWNATGVVVCTGDETQCYGTWVPIGLAIPENEGGGSEGGGSEGGGSEGGGTKPPEYGDTPIPGYTYINPLDGTYPPGTEQNPANPNPSLEESQPLNTFMFQNNRFRNRQGALTVYTGTVTQGTDPVKTYYQYTPVSSKAMYDAYWNGKFRDCAFHSGFNEDPFVCEYQGQSSDLPQPPVNAGGGSGGGSGGGSEGGGSEGGGSEGGGSEGGGSGGGSGSGDFDYEKMANANKGAMTENADENALQSDAKGKLDSVATDYGAAIDGFIGDVSGLANGNGATGDFAGSNSQMAQVGDGDNSPLMNNFRQYLPSLPQSVECRPFVFSAGKPYEFSIDCDKINLFRGVFAFLLYVATFMYVFSTFANILRNKES
notes: mature; Whole phage particle without a ligand, labelled with Alexa Fluor 488 in the localisation experiment; also called EGF- phage; non-displaying phage
binding result: no binding (tested: 5×10^7 virions/mL)

Reference: patent publication US20250269056A1 (published 2025)
